Measurements taken from article PMC3155616 (Cell, 2011).

Target: E. coli SSB (wild type single-stranded DNA binding protein, homotetramer) (E. coli, UniProt P0AGE0 1-178)
Assay: ITC

Chain of E. coli SSB (wild type single-stranded DNA binding protein, homotetramer) (P0AGE0 whole entry): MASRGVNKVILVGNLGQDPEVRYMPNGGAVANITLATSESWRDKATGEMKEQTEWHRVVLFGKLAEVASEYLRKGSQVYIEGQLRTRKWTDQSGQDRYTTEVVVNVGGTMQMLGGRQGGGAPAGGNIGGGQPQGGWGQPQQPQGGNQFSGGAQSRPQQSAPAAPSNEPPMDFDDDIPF

B1: E. coli RecO protein (natural protein, UniProt P0A7H3 1-242, looked up)
chain: MEGWQRAFVLHSRPWSETSLMLDVFTEESGRVRLVAKGARSKRSTLKGALQPFTPLLLRFGGRGEVKTLRSAEAVSLALPLSGITLYSGLYINELLSRVLEYETRFSELFFDYLHCIQSLAGVTGTPEPALRRFELALLGHLGYGVNFTHCAGSGEPVDDTMTYRYREEKGFIASVVIDNKTFTGRQLKALNAREFPDADTLRAAKRFTRMALKPYLGGKPLKSRELFRQFMPKRTVKTHYE
stoichiometry N: 1 RecO per SSB C-terminal tail (four tails per tetramer)
